What all share (assay): cell-based or functional assay
Experiment [1] has as its target human FcγRIIa, high-affinity H131 variant, on Jurkat/NFAT-Luc effector cells (human) (UniProt P12318).
Experiment [2] concerns the target human FcγRIIa, low-affinity R131 variant, on Jurkat/NFAT-Luc effector cells (human) (UniProt P12318).
Experiment [3] addresses human FcγRIIb on Jurkat/NFAT-Luc effector cells (human) (UniProt P31994).
Experiment [4] has as its target mouse FcγRIII on Jurkat/NFAT-Luc effector cells (mouse) (UniProt P08508).
Experiment [5] addresses mouse FcγRIV on Jurkat/NFAT-Luc effector cells (mouse).

Sequence of mouse FcγRIV on Jurkat/NFAT-Luc effector cells (mouse) (A0A0B4J1G0 21-203): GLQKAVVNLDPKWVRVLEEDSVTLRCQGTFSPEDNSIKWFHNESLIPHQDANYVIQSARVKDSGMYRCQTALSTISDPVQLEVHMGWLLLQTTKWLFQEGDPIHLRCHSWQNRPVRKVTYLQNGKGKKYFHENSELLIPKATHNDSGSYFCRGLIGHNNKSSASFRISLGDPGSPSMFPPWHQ
Sequence of human FcγRIIb on Jurkat/NFAT-Luc effector cells (human) (P31994 43-310): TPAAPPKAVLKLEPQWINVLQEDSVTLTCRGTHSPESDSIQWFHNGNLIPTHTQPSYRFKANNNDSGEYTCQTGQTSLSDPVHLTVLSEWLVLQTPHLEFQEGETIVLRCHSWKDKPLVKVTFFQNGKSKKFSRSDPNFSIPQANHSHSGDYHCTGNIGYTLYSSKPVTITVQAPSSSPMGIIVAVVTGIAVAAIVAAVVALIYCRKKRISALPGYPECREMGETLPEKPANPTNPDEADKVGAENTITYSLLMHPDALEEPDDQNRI
Sequence of human FcγRIIa, low-affinity R131 variant, on Jurkat/NFAT-Luc effector cells (human) (P12318 other isoform, or with tags, fused parts or gaps mutant limits assumed): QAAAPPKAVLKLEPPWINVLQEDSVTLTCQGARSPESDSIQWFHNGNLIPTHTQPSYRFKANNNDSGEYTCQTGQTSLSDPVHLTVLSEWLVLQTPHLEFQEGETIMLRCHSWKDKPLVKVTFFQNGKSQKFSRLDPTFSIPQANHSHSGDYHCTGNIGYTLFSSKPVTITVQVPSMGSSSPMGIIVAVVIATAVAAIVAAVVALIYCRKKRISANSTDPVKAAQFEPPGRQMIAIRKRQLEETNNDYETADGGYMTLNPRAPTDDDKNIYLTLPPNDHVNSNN
Sequence of human FcγRIIa, high-affinity H131 variant, on Jurkat/NFAT-Luc effector cells (human) (P12318 34-317, change not shown): as the sequence (P12318 other isoform, or with tags, fused parts or gaps mutant limits assumed) above, with R134H counted along it
Sequence of mouse FcγRIII on Jurkat/NFAT-Luc effector cells (mouse) (P08508 31-261): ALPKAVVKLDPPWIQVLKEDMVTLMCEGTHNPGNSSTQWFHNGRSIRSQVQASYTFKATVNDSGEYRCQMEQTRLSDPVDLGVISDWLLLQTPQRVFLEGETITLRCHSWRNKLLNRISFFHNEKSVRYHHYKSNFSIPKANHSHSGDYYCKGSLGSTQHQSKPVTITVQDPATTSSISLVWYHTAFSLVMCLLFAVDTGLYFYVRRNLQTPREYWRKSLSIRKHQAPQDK

Take Ipilimumab (antibody): the EC50 (µg/mL), FcR reporter bioassay in experiment [1] was 0.05 µg/mL; in experiment [2], 0.21 µg/mL; in experiment [3], 0.17 µg/mL; in experiment [5] it was 2.21 µg/mL. Also, the Maximum luminescence (RLU), FcR reporter bioassay in experiment [1] was determined as 973 RLU; in experiment [2] it was 2640 RLU; in experiment [3], 5800 RLU; in experiment [4], 17500 RLU; in experiment [5], 990 RLU.

(Values after patent publication US20230265192A1.)
